From patent US20250297030A1 (SHANDONG SIMCERE BIOPHARMACEUTICAL, published 2025)
Read-outs that look alike come from different tables or passages of the source.

T1: Cyno MUC17 ECD3577-his (His-tagged cynomolgus monkey MUC17 protein extracellular domain fusion protein) (cynomolgus monkey)
T1 construct: also called monkey MUC17-his protein; monkey MUC17 ECD3577-His
T1 chain: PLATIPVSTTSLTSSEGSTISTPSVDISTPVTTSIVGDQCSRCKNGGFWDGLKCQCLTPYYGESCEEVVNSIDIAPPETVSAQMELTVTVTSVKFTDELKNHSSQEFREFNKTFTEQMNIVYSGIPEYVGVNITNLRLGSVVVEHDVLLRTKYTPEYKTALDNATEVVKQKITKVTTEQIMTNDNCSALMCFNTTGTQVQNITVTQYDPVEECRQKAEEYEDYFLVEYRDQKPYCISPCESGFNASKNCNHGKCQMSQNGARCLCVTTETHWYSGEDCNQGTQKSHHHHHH

T2: monkey MUC17 fragment on FlpinCHO-Cyno(3597-3964)-D2 cells (monkey)
T2 chain: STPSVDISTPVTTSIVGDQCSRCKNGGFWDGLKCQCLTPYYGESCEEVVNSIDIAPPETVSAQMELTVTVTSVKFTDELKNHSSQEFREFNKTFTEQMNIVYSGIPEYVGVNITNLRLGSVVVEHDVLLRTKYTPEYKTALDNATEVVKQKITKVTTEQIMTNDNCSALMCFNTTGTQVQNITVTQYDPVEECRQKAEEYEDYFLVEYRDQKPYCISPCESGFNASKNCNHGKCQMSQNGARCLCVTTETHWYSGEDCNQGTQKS


Key:
[1] = biological target: T3, Human MUC17 ECD4131-his (His-tagged human MUC17 protein extracellular domain fusion protein) (human, UniProt Q685J3 4131-4393); assay: ELISA on coated human MUC17 ECD4131-his, OD450
T3 construct: a truncation of the extracellular domain; also called human MUC17-his protein; human MUC17-His
Protocol: (§1) A human MUC17-his protein was diluted with PBS to a final concentration of […] and then added to a 96-well ELISA plate at 50 µL/well. The plate was incubated at 4° C. overnight. The next day, the plate was washed 2 times with PBST, and a blocking buffer [PBS+2% (w/w) BSA] was added for blocking at room temperature for 2 h. The blocking buffer was discarded, and the recombinant antibody and positive and negative control antibody with a starting concentration of 100 nM serially diluted by 3 folds were added at 50 μL/well. After incubation at 37° C. for 1 h, the plate was washed 3 times with PBST. A horseradish peroxidase (HRP)-labeled secondary antibody (purchased from Merck, Cat. No. AP113P) was added for incubation at 37° C. for 1 h, and the plate was washed 5 times with PBST. A TMB substrate was added at 50 μL/well for incubation at room temperature for 10 min, and then a stop solution (1.0 M HCl) was added at 50 µL/well. The OD₄₅₀ nm values were read by an ELISA plate reader (Multimode Plate Reader, EnSight, purchased from Perkin Elmer).

[2] = biological target: T4, human MUC17 on NUGC4 endogenous tumor cells (human, UniProt Q685J3 26-4493); assay: FACS on NUGC4 cells, MFI
Protocol: (§2) Then a complete medium was added to stop the digestion, and the cells were blown into a single cell suspension. After counting, the cells were centrifuged, and the cell pellet was resuspended to 2×10⁶ cells/mL in an FACS buffer (PBS+2% fetal bovine serum), and added to a 96-well FACS reaction plate at 100 µL/well. The plate was centrifuged, and the supernatant was discarded. An antibody sample to be tested (diluted in a 3-fold gradient from a starting concentration of 100 nM) was added at 50 µL/well and uniformly mixed with the cells, and the mixture was incubated at 4° C. for 1 h. […] The results were tested and analyzed by FACS (FACS Canto™, purchased from BD) after the plate was centrifuged and washed 3 times with a PBS buffer and resuspended with 100 μL of PBS. Data analysis was performed by software (FlowJo) to obtain the mean fluorescence intensity (MFI) of the cells. Then, analysis was performed by software (GraphPad Prism8), data were fitted, and EC50 values were calculated. As shown in FIGS. 3A-3B, the recombinant antibodies Lab315-huFc, Lab316-huFc, Lab320-huFc, Lab331-huFc, and Lab332-huFc are all capable of binding specifically to NUGC-4 cells.
(§3) The preparation of the assay cells and the antibodies to be tested and the assay were performed with reference to Example 3.4. […]

[3] = biological target: T3, Human MUC17 ECD4131-his (His-tagged …); assay: ELISA on coated human MUC17 ECD4131-his, OD450; remark: listed apart in the source
Protocol: as §1

[4] = biological target: T1, Cyno MUC17 ECD3577-his (His-tagged …); assay: ELISA on coated monkey MUC17 ECD3577-His, OD450
Protocol: (§4) To assay the binding activity of the humanized antibodies with the monkey MUC17-his protein, the monkey MUC17-his protein was diluted with PBS to a final concentration of […] and subjected to ELISA assay and data analysis according to the method described in Example 3.3. The humanized antibodies SCR-7724, SCR-7782, SCR-7783, SCR-7784, and SCR-7785 have cross-binding activity with the monkey MUC17 protein, maintaining the binding ability of the recombinant antibody.

[5] = biological target: T3, Human MUC17 ECD4131-his (His-tagged …); assay: ELISA on coated human MUC17 ECD4131-his, OD450; remark: listed apart in the source
Protocol: as §1

[6] = biological target: T1, Cyno MUC17 ECD3577-his (His-tagged …); assay: ELISA on coated monkey MUC17 ECD3577-His, OD450
Protocol: as §4

[7] = biological target: T3, Human MUC17 ECD4131-his (His-tagged …); assay: ELISA on coated human MUC17 ECD4131-his, OD450; remark: listed apart in the source
[8] = biological target: T4, human MUC17 on NUGC4 endogenous tumor …; assay: FACS on NUGC4 cells, MFI; remark: listed apart in the source
Protocol: as §2, §3

[9] = biological target: T2, monkey MUC17 fragment on …; assay: FACS on FlpinCHO-Cyno(3597-3964)-D2 cells, MFI
[10] = biological target: T4, human MUC17 on NUGC4 endogenous tumor …; assay: FACS on NUGC4 cells, MFI; remark: listed apart in the source
Protocol: as §2

[11] = biological target: T1, Cyno MUC17 ECD3577-his (His-tagged …); assay: ELISA on coated monkey MUC17 ECD3577-His, OD450
Protocol: as §1
(§5) The monkey MUC17-his protein was subjected to ELISA and data analysis according to the method described in Example 3.2. The recombinant antibodies Lab315-huFc, Lab316-huFc, Lab320-huFc, Lab331-huFc, and Lab332-huFc have a relatively good binding activity with the monkey MUC17-his protein.

[12] = biological target: T1, Cyno MUC17 ECD3577-his (His-tagged …); assay: ELISA on coated monkey MUC17 ECD3577-His, OD450
Protocol: as §4

[13] = biological target: T3, Human MUC17 ECD4131-his (His-tagged …); assay: ELISA on coated human MUC17 ECD4131-his, OD450; remark: listed apart in the source
[14] = biological target: T1, Cyno MUC17 ECD3577-his (His-tagged …); assay: ELISA on coated monkey MUC17 ECD3577-His, OD450
Protocol: as §4

[15] = biological target: T3, Human MUC17 ECD4131-his (His-tagged …); assay: ELISA on coated human MUC17 ECD4131-his, OD450; remark: listed apart in the source
Protocol: as §1

[16] = biological target: T4, human MUC17 on NUGC4 endogenous tumor …; assay: FACS on NUGC4 cells, MFI; remark: listed apart in the source
Protocol: as §2, §3

[17] = biological target: T1, Cyno MUC17 ECD3577-his (His-tagged …); assay: ELISA on coated monkey MUC17 ECD3577-His, OD450
Protocol: as §1, §5

[18] = biological target: T4, human MUC17 on NUGC4 endogenous tumor …; assay: FACS on NUGC4 cells, MFI; remark: listed apart in the source
Protocol: as §2

[19] = biological target: T3, Human MUC17 ECD4131-his (His-tagged …); assay: ELISA on coated human MUC17 ECD4131-his, OD450; remark: listed apart in the source
Protocol: as §1

[20] = biological target: T3, Human MUC17 ECD4131-his (His-tagged …); assay: SPR (Biacore 8K), antibody captured on Protein A
Protocol: The strength of antibody-antigen binding was assayed with a BIAcore 8K instrument using an Protein A capture method. First, Protein A was immobilized onto a CM4 chip (purchased from GE, BR-1005-34) using an amino coupling method. According to the instruction of the Amine Coupling Kit (purchased from GE, BR100633), NHS and EDC were mixed with HBS-EP+ pH 7.4 as a mobile phase to activate the chip for about 600 s; the Protein A was diluted to 50 µg/mL with 10 mM sodium acetate (pH 4.5) and injected for 600 s, and finally, the remaining activated sites were blocked with ethanolamine. Then, the affinity of the antibody for the antigen was assayed using a multi-cycle kinetic method; in each cycle, first, the antibody to be tested was captured using the Protein A chip, and then a single concentration of antigen protein was injected. The association and dissociation processes of the antibody with the antigen protein were recorded, and finally, the chip was regenerated using Glycine pH 1.5, wherein the mobile phase was HBS-EP+ (10 mM HEPES, 150 mM NaCl, 3 mM EDTA, 0.05% surfactant P20), the flow rate was […], the regeneration time was 30 s, and the assay temperature was 25° C. Finally, according to a 1:1 binding model, the data were analyzed, and the antibody-antigen binding kinetics parameters, including the association rate constant Ka, the dissociation rate constant Kd, the equilibrium dissociation constant KD, and the maximum binding signal Rmax, were fitted. The association rate (Ka), dissociation rate (Kd), and binding affinity (KD) of the recombinant antibodies Lab315-huFc, Lab316-huFc, Lab320-huFc, Lab331-huFc, and Lab332-huFc with the human MUC17 protein are shown in Table 5.

[21] = biological target: T4, human MUC17 on NUGC4 endogenous tumor …; assay: FACS on NUGC4 cells, MFI; remark: listed apart in the source
Protocol: as §2, §3

[22] = biological target: T1, Cyno MUC17 ECD3577-his (His-tagged …); assay: phage ELISA and FACS screening

Row | Binder | EC50 (read off the curve) [1] | EC50 (read off the curve) [2] | EC50 (read off the curve) [3] | EC50 (read off the curve) [4] | EC50 (read off the curve) [6] | EC50 (read off the curve) [11] | EC50 (read off the curve) [12] | EC50 (read off the curve) [13] | EC50 (read off the curve) [14] | EC50 (read off the curve) [15] | EC50 (read off the curve) [17] | also measured
1 | 2D11-hIgG1 (antibody, V domains shown, Control antibody from WO2019133961A1, expressed as human IgG1 + kappa; also called 21D11; MUC17 control antibody) VH: QVQLVESGGGVVQPGRSLRLSCAASGFTFSNHGMHWVRQAPGKCLEWVAGIWSDASNKYYAEAVKGRFTISRDTSKNTLYLQMNSLRAEDTAVYYCARATYTTGWSYFDYWGQGTLVTVSS VL: SYELTQSPSVSVSPGQTASITCSGDKLGDKYTSWYQQKPGQSPVLVIYHDRKRPSGIPERFSGSNSGNTATLTISGTQAMDEADYYCQAYDRSTAWVFGCGTKLTVLR | ~0.02 nM | ~0.05 nM | ~0.006 nM | ~0.05 nM | ~0.04 nM | ~0.01 nM | ~0.01 nM | ~0.006 nM | ~0.01 nM | ~0.04 nM | ~0.03 nM | EC50 (read off the curve) [5]: ~0.03 nM; EC50 (read off the curve) [7]: ~0.02 nM; EC50 (read off the curve) [8]: ~0.1 nM; EC50 (read off the curve) [9]: ~0.4 nM; EC50 (read off the curve) [10]: ~0.07 nM; EC50 (read off the curve) [16]: ~0.1 nM; EC50 (read off the curve) [18]: ~0.1 nM; EC50 (read off the curve) [19]: ~0.02 nM; Kd [20]: 7.12 nM; koff [20]: 0.000753 s⁻¹; kon [20]: 106000 M⁻¹ s⁻¹; EC50 (read off the curve) [21]: ~0.1 nM
2 | 4C11-hIgG1 (antibody, V domains shown, also called MUC17 control antibody) VH: not shown VL: EIVLTQSPGTLSLSPGERATLSCRASQSVNRYLAWYQQKPGQAPRLLIYGASNRATGIPDRFTGSGSGTDFTLTISRLEPEDFAVYFCHHYGSSIFAFGCGTKVEIKR | ~0.05 nM | ~4 nM | ~0.01 nM | ~0.08 nM | ~0.08 nM | ~0.02 nM | ~0.05 nM | ~0.01 nM | ~0.02 nM | ~0.05 nM | ~0.04 nM | –
3 | Lab315 (VHH, also called Lab315 phage clone; SCR-7724) VHH: DVQLQASGGGAVQAGGSLRLSCAASGDITRRCMGWFRQAPGKEREGVAGISEDGITIYADSVKGRFTISKDNAKNSLYLQMNSLAPEDTANYSCAASILNRVGCRQLSYEYIYRGQGTQVTVSS | – | – | – | – | – | – | – | – | – | – | – | binding result [22]: binds
